This experiment deals with circularly permuted Caspase-2 double mutant Asp323Thr/His226Ala (human) (UniProt P42575).

*1 amine or outer side, *2 acyl side, *3 side chain or, on linkers, in order; H or OH if unused. Where no end group is shown, it is not given here. [ ]: non-standard residue; d: D form. Dap(Dnp) = diaminopropionic acid carrying a 2,4-dinitrophenyl quencher, O=C([C@H](CNc1ccc([N+](=O)[O-])cc1[N+](=O)[O-])N[*:1])[*:2]; 2Abz = Nc1ccccc1C(=O)O

Sequence of UniProt P42575 (P42575 whole entry H226A/D323T): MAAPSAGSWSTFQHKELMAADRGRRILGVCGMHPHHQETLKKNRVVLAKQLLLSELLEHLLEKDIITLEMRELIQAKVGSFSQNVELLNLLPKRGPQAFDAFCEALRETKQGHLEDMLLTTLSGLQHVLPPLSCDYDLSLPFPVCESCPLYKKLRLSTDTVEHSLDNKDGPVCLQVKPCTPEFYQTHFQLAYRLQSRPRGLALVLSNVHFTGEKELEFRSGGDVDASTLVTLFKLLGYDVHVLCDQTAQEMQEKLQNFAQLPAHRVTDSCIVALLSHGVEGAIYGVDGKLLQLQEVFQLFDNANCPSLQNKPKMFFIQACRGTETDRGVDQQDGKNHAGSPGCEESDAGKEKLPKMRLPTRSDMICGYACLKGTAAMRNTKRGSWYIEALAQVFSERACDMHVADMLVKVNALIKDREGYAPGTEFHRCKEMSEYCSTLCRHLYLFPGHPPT

The molecule [2Abz]VDVADVA-{Dap(Dnp)} [Abz-VDVAD-VA-Dap(Dnp)] gave a K M (Michaelis-Menten kinetics, FRET peptide-based cleavage assay, 1 μM enzyme) of 77 µM.
Consider [2Abz]VDVADTA-{Dap(Dnp)} [Abz-VDVAD-TA-Dap(Dnp)], for which the K M (Michaelis-Menten kinetics, FRET peptide-based cleavage assay, 1 μM enzyme) was determined as 82 µM.
For [2Abz]VDVADLA-{Dap(Dnp)} [Abz-VDVAD-LA-Dap(Dnp)], the K M (Michaelis-Menten kinetics, FRET peptide-based cleavage assay, 1 μM enzyme) turned out to be 193 µM.
[2Abz]VDVADGA-{Dap(Dnp)} [Abz-VDVAD-GA-Dap(Dnp)] returned a K M (Michaelis-Menten kinetics, FRET peptide-based cleavage assay, 1 μM enzyme) of 55 µM.
In the case of [2Abz]VDVADPA-{Dap(Dnp)} [Abz-VDVAD-PA-Dap(Dnp)] it was 43 µM; in that of [2Abz]VDVADAA-{Dap(Dnp)} [Abz-VDVAD-AA-Dap(Dnp)], 57 µM.

The values above are taken from paper PMC7497161.
